This note sets out measurements from PMC5015959, “The Binding of Plasmodium falciparum Adhesins and Erythrocyte Invasion Proteins to Aldolase Is Enhanced by Phosphorylation” (PLoS ONE, 2016).

Where a SMILES comes first, the peptide text is derived from it. Where no end group is shown, it is not given here. [ ]: non-standard residue; d: D form. The star is where a group is joined. Biotin = O=C1N[C@H]2[C@H](CS[C@H]2CCCCC(=O)*)N1; pT = C[C@@H](OP(=O)(O)O)[C@H](N)C(=O)O; pS = N[C@@H](COP(=O)(O)O)C(=O)O Where only a bound is given, the exact number is not on record here.

In assay [1] the target is RH1 full length CTD (2921–2971) (P. falciparum). As to the kind of experiment: BLI. (In BLI a coated tip is dipped into the sample, and binding shifts an interference pattern.)
Assay [2] addresses RH1 CTD phosphorylated at S2950 or T2951 (P. falciparum). Nature of the assay: BLI.
Assay [3] has as its target T1, P. falciparum aldolase (Plasmodium falciparum, UniProt Q7KQL9).
T1 construct: made in house
Nature of the assay: biochemical. Type of assay: binding. To be noted: for binding to aldolase (in words): biolayer interferometry, Octet Red; for Kd: same assay as the Kd column, symbol * = no binding. From the text:
CTDs of four classes of type 1 membrane protein (AMA1 and the TRAP, EBL and RH families) that are potential adhesins or host cell invasion proteins derived from apical organelles, and present in the merozoite plasma membrane during invasion, were examined for their ability to bind to aldolase using bio-layer interferometry. Streptavidin-coated biosensors were loaded with biotinylated synthetic peptides or recombinant proteins representing either the full length CTDs or shorter C-terminal sequences (Table 1) and titrated with increasing aldolase concentrations. This analysis enabled the calculation of a dissociation constant (Kd) for each pair of proteins as a measure of the strength of interaction between them.
The effect of the CTD phosphorylation on aldolase binding was investigated using biolayer interferometry using phosphorylated synthetic peptides or peptides phosphorylated in vitro (Table 3).
Protein interactions were analysed by biolayer interferometry using the Octet Red system (ForteBio) at 25°C in 96-well microplates, as described previously. All assays were performed in 100 mM Tris-HCl pH 8.0, according to the manufacturer’s instructions. A baseline was established over 1 min, and biotinylated samples were loaded onto streptavidin sensors for 1 min. The sensors were washed for 1 min and then incubated with aldolase at different concentrations (0.05–250 μM) for 1 min, followed by a dissociation phase over 5 min. The experiments were performed in duplicate or triplicate depending on the experiment. The data were analysed as described previously.

The target in assay [4] is T2, P. falciparum aldolase (P. falciparum, UniProt Q7KQL9 1-369).
T2 construct: also called fructose 1,6-bisphosphate aldolase; parasite aldolase; source: prepared as described previously [42]
T2 sequence (looked up): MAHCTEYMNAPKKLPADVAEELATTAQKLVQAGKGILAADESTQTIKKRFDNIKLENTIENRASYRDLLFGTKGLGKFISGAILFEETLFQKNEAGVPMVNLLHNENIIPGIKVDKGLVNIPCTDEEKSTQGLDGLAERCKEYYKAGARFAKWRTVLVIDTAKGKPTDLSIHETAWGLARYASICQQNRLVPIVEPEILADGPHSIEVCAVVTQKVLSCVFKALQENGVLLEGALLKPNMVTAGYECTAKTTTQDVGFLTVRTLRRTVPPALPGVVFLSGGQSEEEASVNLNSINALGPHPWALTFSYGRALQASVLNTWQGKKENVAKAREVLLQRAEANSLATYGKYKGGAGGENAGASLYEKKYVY
Nature of the assay: BLI. The following applies: both partners purified.

Assay [5] deals with T2, P. falciparum aldolase. As to the kind of experiment: BLI. To be noted: both partners purified. The source holds these as a separate data set.
The target of assay [6] is T2, P. falciparum aldolase. Nature of the assay: BLI; competition: biotinylated AMA1 or RH4 CTD on streptavidin sensor, fixed aldolase (70 μM for AMA1, 20 μM for RH4) with increasing unlabelled MTRAP CTD peptide; Octet Red; duplicate. To be noted: both partners purified.

A word on the Kd: it is the concentration at which binding is half-saturated. Higher therefore signals weaker binding. As for “P. falciparum aldolase (from UniProt Q7KQL9 1-369) (enzyme)”, the Kd in assay [1] is 6.1 µM; in assay [2] it was 2.5 µM.
With “Biotin-KTNSGDNNSNEINEAFEPNDDVLFKEKDEIIEITFNDNDSTI [RH2A]”, in assay [3], the “binding to aldolase (in words)” value is listed as “did not bind at all” and the Kd was over 250 µM.
With “Biotin-DRSNKDECDFDMCEEVNNNDHLSNYADKEEIIEIVFDENEEKYF (cysteines drawn unpaired) [RH2B]”, the “increase in affinity for aldolase following phosphorylation” value in assay [3] (phosphorylated versus unmodified CTD, from Kd values of Table 3) was 11 fold.
Regarding `CSCC[C@H](NC(=O)[C@H](CC(C)C)NC(=O)[C@@H](NC(=O)CCCC[C@@H]1SC[C@@H]2NC(=O)N[C@@H]21)C(C)C)C(=O)N[C@@H](CCC(=O)O)C(=O)N[C@@H](CCCCN)C(=O)N1CCC[C@H]1C(=O)N[C@@H](Cc1ccc(O)cc1)C(=O)N[C@@H](Cc1ccc(O)cc1)C(=O)O` [AMA1 555–562] (Biotin-VLMEKPYY-OH; C-terminus assumed), in assay [3], the “binding to aldolase (in words)” value is “did not bind” and the Kd was over 250 µM.
Turning to `CC[C@H](C)[C@H](NC(=O)[C@H](Cc1c[nH]cn1)NC(=O)[C@H](Cc1ccc(O)cc1)NC(=O)CCCC[C@@H]1SC[C@@H]2NC(=O)N[C@@H]21)C(=O)N[C@@H](Cc1ccccc1)C(=O)N[C@@H](Cc1ccc(O)cc1)C(=O)N[C@@H](CCCCN)C(=O)N[C@@H](CCCNC(=N)N)C(=O)N[C@@H](CCCCN)C(=O)NCC(=O)N[C@@H](C)C(=O)N[C@@H](CCC(=O)O)C(=O)N[C@@H](CCCCN)C(=O)N[C@@H](CCC(=O)O)C(=O)N[C@@H](CC(C)C)C(=O)N[C@@H](Cc1ccc(O)cc1)C(=O)N[C@@H](CCC(=O)O)C(=O)N[C@@H](CC(N)=O)C(=O)N[C@H](C(=O)N[C@@H](C)C(=O)NCC(=O)N[C@@H](CCCNC(=N)N)C(=O)N[C@@H](Cc1ccc(O)cc1)C(=O)N[C@@H](CCSC)C(=O)N[C@@H](Cc1ccc(O)cc1)C(=O)N[C@@H](CC(=O)O)C(=O)O)C(C)C` [PTRAMP, reference compound] (Biotin-YHIFYKRKGAEKELYENVAGRYMYD-OH; C-terminus assumed), the “binding to aldolase (in words)” value in assay [3] was “does not bind”.

B1: RH4 CTD (1650–1716) (peptide)
peptide: Biotin-KNSNEPHHIFNIFQKEFSEADNAHSEEKEEYLPVYFDEVEDEVEDEVEDEDENENEVENENEDFNDI
notes: also called RH4 unmodified; source: synthetic peptide; bought: Biomatik, USA
B1 showed a Kd in assay [4] of 3.5 µM.

B2: MTRAP CTD phosphorylated at Thr-459 and Thr-467 (peptide)
peptide: Biotin-YFLRKEK[pT]EKVVQEE[pT]KEENFEVMFNDDALKGKDNKAMDEEEFWALE
notes: source: phosphorylated synthetic peptide (Biomatik) or peptide phosphorylated in vitro
B2 gave a Kd in assay [5] of 0.9 µM.

B3: RH2B CTD phosphorylated at S3233 (peptide)
peptide: Biotin-DRSNKDECDFDMCEEVNNNDHL[pS]NYADKEEIIEIVFDENEEKYF
modifications: cysteine pairing not given here
notes: as for B2
B3 returned a Kd in assay [5] of 11 µM.

B4: EBA175 CTD (1445–1502) (peptide)
peptide: Biotin-KYQSSEGVMNENNENNFLFEVTDNLDKLSNMFNQQVQETNINDFSEYHEDINDINFKK
notes: also called EBA175 unmodified; source: synthetic peptide; bought: Biomatik, USA
Consider B4, for which the Kd in assay [4] is 96 µM.

B5: EBA175 CTD phosphorylated at T1483 and S1489 (peptide)
peptide: Biotin-KYQSSEGVMNENNENNFLFEVTDNLDKLSNMFNQQVQE[pT]NINDF[pS]EYHEDINDINFKK
notes: as for B2
The molecule B5 had a Kd in assay [5] of 38 µM.

B6: EBA140 CTD (1155–1210) (peptide)
peptide: Biotin-RMGKSNEEYDIGESNIEATFEENNYLNKLSRIFNQEVQETNISDYSEYNYNEKNMY
notes: also called EBA140 unmodified; source: synthetic peptide; bought: Biomatik, USA
For B6, in assay [4], binding was characterised by a dissociation constant (Kd) of 83 µM.

B7: EBA181 CTD (1511–1567) (peptide)
peptide: Biotin-RKNLDDEKGFYDSNLNDSAFEYNNNKYNKLPYMFDQQINVVNSDLYSEGIYDDTTTF
notes: also called EBA181 unmodified; source: synthetic peptide; bought: Biomatik, USA
For the molecule B7, binding in assay [4] was put at a Kd of 130 µM.
For the molecule YFLRKEKTEKVVQEETKEENFEVMFNDDALKGKDNKAMDEEEFWALE [unlabelled competitor MTRAP CTD peptide], the “percent reduction of aldolase binding to RH4 CTD at a 5-fold molar excess of MTRAP to aldolase” value in assay [6] worked out at 56%.

B8: AMA1 CTD phosphorylated at Ser-610 (peptide)
peptide: Biotin-YKRKGNAEKYDKMDEPQDYGKSNSRNDEMLDPEASFWGEEKRASHTTPVLMEKPYY
modifications: not fully specified (residue 44)
notes: as for B2
In turn, B8 returned a Kd in assay [5] of 44 µM.

B9: MTRAP CTD short C-terminal peptide (printed residues 479–498) (peptide)
peptide: Biotin-ALKGKDNKAMDEEEFWALE
notes: source: synthetic peptide; bought: Biomatik, USA
Take B9: the affinity in assay [4], expressed as Kd, was 17 µM.

B10: MTRAP full length CTD (452–498), synthetic biotinylated peptide (peptide)
peptide: Biotin-YFLRKEKTEKVVQEETKEENFEVMFNDDALKGKDNKAMDEEEFWALE
notes: as for B9
On to B10, for which the Kd in assay [4] is 13.8 µM.

B11: EBA181 CTD phosphorylated at S1523 and S1528 (peptide)
peptide: Biotin-RKNLDDEKGFYD[pS]NLND[pS]AFEYNNNKYNKLPYMFDQQINVVNSDLYSEGIYDDTTTF
notes: as for B2
B11 showed a Kd in assay [5] of 4.7 µM.

B12: EBA140 CTD, phosphorylated (peptide)
peptide: Biotin-RMGKSNEEYDIGESNIEATFEENNYLNKLSRIFNQEVQETNISDYSEYNYNEKNMY
modifications: also: phosphorylated, exact sites not determined
notes: also called EBA140 phosphorylated; source: phosphorylated synthetic peptide (Biomatik) or peptide phosphorylated in vitro
The molecule B12 came in with a Kd in assay [5] of 35 µM.

B13: RH2B CTD (3211–3254) (peptide)
peptide: Biotin-DRSNKDECDFDMCEEVNNNDHLSNYADKEEIIEIVFDENEEKYF
modifications: cysteine pairing not given here
notes: also called RH2B unmodified; source: synthetic peptide; bought: Biomatik, USA
The molecule B13 showed a Kd in assay [4] of 125 µM.

B14: RH4 CTD phosphorylated at S1667 or S1674 (peptide)
peptide: Biotin-KNSNEPHHIFNIFQKEFSEADNAHSEEKEEYLPVYFDEVEDEVEDEVEDEDENENEVENENEDFNDI
modifications: also: one phosphate at either Ser1667 (pos 18) or Ser1674 (pos 25)
notes: as for B2
As to B14, in assay [5], the Kd turned out to be 2.5 µM.

B15: MTRAP CTD phosphorylated at Thr-459 (peptide)
peptide: Biotin-YFLRKEK[pT]EKVVQEETKEENFEVMFNDDALKGKDNKAMDEEEFWALE
notes: as for B2
B15 yielded a Kd in assay [5] of 3.5 µM.

B16: MTRAP CTD phosphorylated at Thr-467 (peptide)
peptide: Biotin-YFLRKEKTEKVVQEE[pT]KEENFEVMFNDDALKGKDNKAMDEEEFWALE
notes: as for B2
As for B16, the Kd in assay [5] was found to be 1.9 µM.

B17: TRAP full length CTD (530–574) (peptide)
peptide: Biotin-YKFVVPGAATPYAGEPAPFDETLGEEDKDLDEPEQFRLPEENEWN
notes: as for B9
For the molecule B17, binding in assay [4] was put at a Kd of 5 µM.

B18: AMA1 full length CTD (567–622) (peptide)
peptide: Biotin-YKRKGNAEKYDKMDEPQDYGKSNSRNDEMLDPEASFWGEEKRASHTTPVLMEKPYY
notes: as for B9
For B18, in assay [4], the dissociation constant (Kd) came to 53 µM.
